The source of these data is patent US20240261378A1 (UNM RAINFOREST INNOVATIONS, published 2024).

The target of test [1] is Optineurin (UniProt Q96CV9 1-577, limits assumed). The test is described as follows: GST-galectin-8 pull-down with Sequestosome 1-like receptors.
Description: GST-fusion proteins were expressed in Escherichia coli SoluBL21 (Amsbio). […] The [³⁵S] labeled proteins were produced using the TNT T7 Quick Coupled Transcription/Translation System (Promega) in the presence of [³⁵S] L-methionine. The proteins were eluted from washed beads by boiling in SDS-PAGE gel loading buffer. separated by SDS-PAGE, and radiolabeled proteins were detected in a Fujifilm bioimaging analyzer BAS-5000 (Fuji).
Test [2] addresses T1, 35S-Myc-HA-TRIM21 (in vitro translated) (human, UniProt P19474 1-475, [35S]-methionine radiolabel).
T1 construct: not shown: Myc-HA tag
The test is described as follows: GST pull-down of in vitro translated 35S-labelled TRIM.

Test [3] deals with T2, [35S] myc-HA-TRIM16 wild type (in vitro translated) (human, UniProt O95361 1-564, [35S]-methionine radiolabel).
T2 construct: not shown: Myc-HA tag
Described as above.

The target of test [4] is T3, endogenous TRIM16 (human, UniProt O95361 1-564).
T3 construct: Endogenous protein, immunoprecipitated from cell lysates
Description: co-IP of endogenous proteins, HeLa lysates.

Optineurin, sequence (Q96CV9 whole entry): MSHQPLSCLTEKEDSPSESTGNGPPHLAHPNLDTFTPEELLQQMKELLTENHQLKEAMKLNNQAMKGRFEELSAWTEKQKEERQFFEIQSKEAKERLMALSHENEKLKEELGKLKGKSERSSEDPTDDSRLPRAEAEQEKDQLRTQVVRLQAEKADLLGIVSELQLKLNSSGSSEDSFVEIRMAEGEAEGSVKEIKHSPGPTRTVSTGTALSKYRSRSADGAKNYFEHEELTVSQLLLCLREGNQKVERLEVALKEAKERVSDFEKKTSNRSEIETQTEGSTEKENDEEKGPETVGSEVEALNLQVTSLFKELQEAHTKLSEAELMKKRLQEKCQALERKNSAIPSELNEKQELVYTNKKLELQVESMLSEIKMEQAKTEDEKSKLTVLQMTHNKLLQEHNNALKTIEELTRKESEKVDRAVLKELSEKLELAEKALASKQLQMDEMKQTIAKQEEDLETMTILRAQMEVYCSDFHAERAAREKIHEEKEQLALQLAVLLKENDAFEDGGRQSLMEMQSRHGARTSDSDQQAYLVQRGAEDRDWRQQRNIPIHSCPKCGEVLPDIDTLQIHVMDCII
T1 sequence (P19474 whole entry): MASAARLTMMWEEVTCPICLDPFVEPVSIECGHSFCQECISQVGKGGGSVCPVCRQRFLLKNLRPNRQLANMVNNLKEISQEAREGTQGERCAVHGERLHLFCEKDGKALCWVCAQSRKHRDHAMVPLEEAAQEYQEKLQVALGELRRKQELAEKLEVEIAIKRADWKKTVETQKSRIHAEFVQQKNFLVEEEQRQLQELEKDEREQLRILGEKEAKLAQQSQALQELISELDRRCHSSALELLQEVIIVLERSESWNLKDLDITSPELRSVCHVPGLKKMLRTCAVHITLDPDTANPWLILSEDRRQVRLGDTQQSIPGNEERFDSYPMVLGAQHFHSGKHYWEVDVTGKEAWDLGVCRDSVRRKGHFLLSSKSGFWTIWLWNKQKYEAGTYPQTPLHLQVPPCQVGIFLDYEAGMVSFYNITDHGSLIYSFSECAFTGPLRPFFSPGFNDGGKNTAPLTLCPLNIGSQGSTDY

B1: GST-Galectin-8 (other)
chain: MMLSLNNLQNIIYNPVIPFVGTIPDQLDPGTLIVIRGHVPSDADRFQVDLQNGSSMKPRADVAFHFNPRFKRAGCIVCNTLINEKWGREEITYDTPFKREKSFEIVIMVLKDKFQVAVNGKHTLLYGHRIGPEKIDTLGIYGKVNIHSIGFSFSSDLQSTQASSLELTEISRENVPKSGTPQLPSNRGGDISKIAPRTVYTKSKDSTVNHTLTCTKIPPMNYVSKRLPFAARLNTPMGPGRTVVVKGEVNANAKSFNVDLLAGKSKDIALHLNPRLNIKAFVRNSFLQESWGEEERNITSFPFSPGMYFEMIIYCDVREFKVAVNGVHSLEYKHRFKELSSIDTLEINGDIHLLEVRSW
notes: not shown: GST tag (fusion expressed in E. coli SoluBL21)
In the case of B1, the binding result in test [1], in test [2] and in test [3] was “no binding” throughout.

B2: endogenous ULK1 (enzyme, UniProt O75385 1-1050, looked up)
chain: MEPGRGGTETVGKFEFSRKDLIGHGAFAVVFKGRHREKHDLEVAVKCINKKNLAKSQTLLGKEIKILKELKHENIVALYDFQEMANSVYLVMEYCNGGDLADYLHAMRTLSEDTIRLFLQQIAGAMRLLHSKGIIHRDLKPQNILLSNPAGRRANPNSIRVKIADFGFARYLQSNMMAATLCGSPMYMAPEVIMSQHYDGKADLWSIGTIVYQCLTGKAPFQASSPQDLRLFYEKNKTLVPTIPRETSAPLRQLLLALLQRNHKDRMDFDEFFHHPFLDASPSVRKSPPVPVPSYPSSGSGSSSSSSSTSHLASPPSLGEMQQLQKTLASPADTAGFLHSSRDSGGSKDSSCDTDDFVMVPAQFPGDLVAEAPSAKPPPDSLMCSGSSLVASAGLESHGRTPSPSPPCSSSPSPSGRAGPFSSSRCGASVPIPVPTQVQNYQRIERNLQSPTQFQTPRSSAIRRSGSTSPLGFARASPSPPAHAEHGGVLARKMSLGGGRPYTPSPQVGTIPERPGWSGTPSPQGAEMRGGRSPRPGSSAPEHSPRTSGLGCRLHSAPNLSDLHVVRPKLPKPPTDPLGAVFSPPQASPPQPSHGLQSCRNLRGSPKLPDFLQRNPLPPILGSPTKAVPSFDFPKTPSSQNLLALLARQGVVMTPPRNRTLPDLSEVGPFHGQPLGPGLRPGEDPKGPFGRSFSTSRLTDLLLKAAFGTQAPDPGSTESLQEKPMEIAPSAGFGGSLHPGARAGGTSSPSPVVFTVGSPPSGSTPPQGPRTRMFSAGPTGSASSSARHLVPGPCSEAPAPELPAPGHGCSFADPITANLEGAVTFEAPDLPEETLMEQEHTEILRGLRFTLLFVQHVLEIAALKGSASEAAGGPEYQLQESVVADQISLLSREWGFAEQLVLYLKVAELLSSGLQSAIDQIRAGKLCLSSTVKQVVRRLNELYKASVVSCQGLSLRLQRFFLDKQRLLDRIHSITAERLIFSHAVQMVQSAALDEMFQHREGCVPRYHKALLLLEGLQHMLSDQADIENVTKCKLCIERRLSALLTGICA
On to B2, for which the binding result in test [4] was “binds”.
